Patent publication US20260248972A1, “DUAL RECEPTOR TARGETING RADIOLIGANDS AND USES THEREOF RELATED APPLICATIONS” (priority 2022, published 2026)
Read-outs that look alike come from different tables or passages of the source.

Legend:
in vivo = conditions: BALB/c nude, mouse, in vivo, iv, total radioactivity
In short: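 Tissue uptake given as % ID and % ID/g from γ counting of organs taken 4, 24 and 72 h after injection into BALB/c nude mice carrying subcutaneous AR42J xenografts (0.05-0.50 g). Tracers were ^177Lu-labelled at 95° C for 15 min in pH 4.5 NaOAc buffer and used neat or diluted in PBS containing 3 mg/mL ascorbate.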

SSTR2 = target: T1, SSTR2 (Rattus norvegicus, UniProt P30680); experiment: Competitive cell-binding assay on AR42J cells with 125I-C1 as competitive ligand
T1 construct: host or cells: AR42J cells
In short: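 Displacement of 125I-C1 or 125I-C3 tracer (0.02 μCi/well) by 0-10000 nM compound measured in triplicate on suspended AR42J cells in BSA-containing RPMI-1640, 37° C. for 1 h. After filtration washes, filter-bound counts gave IC50 via nonlinear regression fit.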

CCK2R = target: T2, CCK2R (Rattus norvegicus, UniProt P30553); experiment: Competitive cell-binding assay on AR42J cells with 125I-C3 as competitive ligand
T2 construct: host or cells: AR42J cells
T2 sequence (P30553 1-452): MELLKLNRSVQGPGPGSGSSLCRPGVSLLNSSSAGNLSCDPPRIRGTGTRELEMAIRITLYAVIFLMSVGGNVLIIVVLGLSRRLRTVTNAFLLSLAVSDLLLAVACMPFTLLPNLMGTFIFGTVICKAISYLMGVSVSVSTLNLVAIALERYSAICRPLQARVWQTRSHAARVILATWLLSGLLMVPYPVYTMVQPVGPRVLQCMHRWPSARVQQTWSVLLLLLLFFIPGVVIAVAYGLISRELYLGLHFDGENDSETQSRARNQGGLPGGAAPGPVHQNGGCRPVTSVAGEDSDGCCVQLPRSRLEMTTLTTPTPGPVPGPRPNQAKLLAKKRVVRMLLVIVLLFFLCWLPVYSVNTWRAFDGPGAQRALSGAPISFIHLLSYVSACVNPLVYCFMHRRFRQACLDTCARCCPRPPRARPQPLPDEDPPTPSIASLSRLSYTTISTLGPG
Description: AR42J cells (ATCC) were maintained in RPMI-1640 medium (Gibco) supplemented with 15% fetal bovine serum (Gibco) and 1% penicillin-streptomycin (BI) at 37° C. in a humidified incubator with 5% CO2. The culture medium was replaced with fresh medium every 2-3 days. Experiments were performed with cells at 70-80% confluence.
Binding Affinity Tested by Using ^125I-Labeled Competitive Ligands.
The binding affinities of test compounds were determined by a competitive cell-binding assay using ^125I-C1 and ^125I-C3 as the competitive ligand. The suspended AR42J cells at a density of 1~3×10^6 cells/mL in binding buffer (RPMI-1640 medium supplemented with 0.25% bovine serum albumin) were transferred to a MultiScreen-DV Filter Plate (Millipore) with 100 μL per well except the blank group where the binding buffer was used instead. The cells were then incubated with ^125I-C1 and ^125I-C3 (0.02 μCi/well) in the presence of increasing concentrations (0-10000 nM) of test compounds at 37° C. for 1 h (n=3). The final volume in each well was maintained at 200 μL and insufficient volume was adjusted by the binding buffer. After the 1 h incubation, unbound ^125I-competitive ligands were removed by filtration using a Multiscreen vacuum manifold (Millipore) followed by rinses with the binding buffer (3 times). The filters were collected, and their radioactivity were individually measured by γ counter (2480 WIZARD2, PerkinElmer). The best-fit IC50value (inhibitory concentration when 50% of the bound ^125I-C1 and ^125l I-C3 on cells were displaced) of test compounds were calculated by fitting the data with nonlinear regression using GraphPad Prism 8.0.1.

[1] = T/K Tumor/Kidney ratio, 177Lu-labeled, 24 hours after dosing
[2] = T/L Tumor/Liver ratio, 177Lu-labeled, 24 hours after dosing
[3] = T/P Tumor/Pancreas ratio, 177Lu-labeled, 24 hours after dosing
[4] = T/Sp Tumor/Spleen ratio, 177Lu-labeled, 24 hours after dosing
[5] = T/St Tumor/Stomach ratio, 177Lu-labeled, 24 hours after dosing
[6] = uptake Kidney, 177Lu-labeled, 24 hours after dosing (Table 5)
[7] = uptake Liver, 177Lu-labeled, 24 hours after dosing (Table 5)
[8] = uptake Pancreas, 177Lu-labeled, 24 hours after dosing (Table 5)
[9] = uptake Spleen, 177Lu-labeled, 24 hours after dosing (Table 5)
[10] = uptake Stomach, 177Lu-labeled, 24 hours after dosing (Table 5)
[11] = uptake Tumor, 177Lu-labeled, 24 hours after dosing (Table 5)

T1 sequence (P30680 whole entry): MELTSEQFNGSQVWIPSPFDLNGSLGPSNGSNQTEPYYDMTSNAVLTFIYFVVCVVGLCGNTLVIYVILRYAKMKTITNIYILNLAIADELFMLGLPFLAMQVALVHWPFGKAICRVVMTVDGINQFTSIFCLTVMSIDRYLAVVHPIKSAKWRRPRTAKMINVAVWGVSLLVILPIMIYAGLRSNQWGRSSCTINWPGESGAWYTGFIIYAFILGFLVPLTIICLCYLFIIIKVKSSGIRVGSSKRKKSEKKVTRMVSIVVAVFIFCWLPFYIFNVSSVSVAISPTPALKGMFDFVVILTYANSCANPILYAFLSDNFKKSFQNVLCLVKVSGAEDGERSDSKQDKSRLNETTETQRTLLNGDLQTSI

`C[C@@H](O)[C@H](NC(=O)[C@@H]1CSSC[C@H](NC(=O)[C@@H](Cc2ccccc2)NC(=O)COCCOCCNC(=O)[C@H](CCCCNC(=O)CCC(C(=O)O)N2CCN(CC(=O)O)CCN(CC(=O)O)CCN(CC(=O)O)CC2)NC(=O)COCCOCCNC(=O)CC[C@H](NC(=O)CC[C@H](NC(=O)c2cccc(NC(=O)N[C@@H]3CN(C4CCCCC4)c4ccccc4N(CC(=O)C(C)(C)C)C3=O)c2)C(=O)O)C(=O)O)C(=O)N[C@@H](Cc2ccc(O)cc2)C(=O)N[C@H](Cc2c[nH]c3ccccc23)C(=O)N[C@@H](CCCCN)C(=O)N[C@@H]([C@@H](C)O)C(=O)N1)C(=O)O` (stereo partly drawn) [Compound I-13, (Z360)- gE- gE- OEG- K(DOTAGA)- OEG- f[CYwKTC]T- OH] showed a tissue to tissue ratio at 24 h (in vivo; T/K Tumor/Kidney ratio) of 0.3, a tissue to tissue ratio at 24 h (in vivo; T/L Tumor/Liver ratio) of 12 and a tissue to tissue ratio at 24 h (in vivo; T/P Tumor/Pancreas ratio) of 12. For the same compound, the tissue to tissue ratio at 24 h (in vivo; T/Sp Tumor/Spleen ratio) was 32, the tissue to tissue ratio at 24 h (in vivo; T/St Tumor/Stomach ratio) was 6.8 and the tissue uptake at 24 h (in vivo; uptake Kidney) was 46.7 %ID/g. The tissue uptake at 24 h (in vivo; uptake Liver) was 1.21 %ID/g, the tissue uptake at 24 h (in vivo; uptake Pancreas) was 1.21 %ID/g and the tissue uptake at 24 h (in vivo; uptake Spleen) was 0.47 %ID/g. It also gave a tissue uptake at 24 h (in vivo; uptake Stomach) of 2.19 %ID/g, a tissue uptake at 24 h (in vivo; uptake Tumor) of 14.8 %ID/g and an IC50 (SSTR2; AR42J cells, 125I-C1 competitive ligand, 37° C. 1 h, read-out: SSTR2/IC50) of 12.3 nM. For the same compound, the “Relative Binding Affinity SSTR2” value (SSTR2; based on mean IC50, C-1 = 1.00) was 0.23, the IC50 (CCK2R; AR42J cells, 125I-C3 competitive ligand, 37° C. 1 h, read-out: CCK2R/IC50) was 1.6 nM and the “Relative Binding Affinity CCK2R” value (CCK2R; based on mean IC50, C-2 = 1.00) was 10.8.
In the case of `C[C@@H](O)[C@H](NC(=O)[C@@H]1CSSC[C@H](NC(=O)[C@@H](Cc2ccccc2)NC(=O)[C@H](CCCCNC(=O)c2cccc(NC(=O)N[C@@H]3CN(C4CCCCC4)c4ccccc4N(CC(=O)C(C)(C)C)C3=O)c2)NC(=O)CN2CCN(CC(=O)O)CCN(CC(=O)O)CCN(CC(=O)O)CC2)C(=O)N[C@@H](Cc2ccc(O)cc2)C(=O)N[C@H](Cc2c[nH]c3ccccc23)C(=O)N[C@@H](CCCCN)C(=O)N[C@@H]([C@@H](C)O)C(=O)N1)C(=O)O` [Compound I-34, DOTA-K(Z360)-f[CYwKTC]T-OH], the tissue to tissue ratio at 24 h (in vivo; [1]) is reported as 3.7, the tissue to tissue ratio at 24 h (in vivo; [2]) is reported as 1.1 and the tissue to tissue ratio at 24 h (in vivo; [3]) is reported as 7. The tissue to tissue ratio at 24 h (in vivo; [4]) was 2.4, the tissue to tissue ratio at 24 h (in vivo; [5]) was 4 and the tissue uptake at 24 h (in vivo; [6]) was 6.1 %ID/g. For the same compound, the tissue uptake at 24 h (in vivo; [7]) was 19.8 %ID/g, the tissue uptake at 24 h (in vivo; [8]) was 3.2 %ID/g and the tissue uptake at 24 h (in vivo; [9]) was 9.5 %ID/g. The tissue uptake at 24 h (in vivo; [10]) was 5.7 %ID/g, the tissue uptake at 24 h (in vivo; [11]) was 22.7 %ID/g and the “Relative Binding Affinity SSTR2” value (SSTR2) was 1.49. For the same compound, the “Relative Binding Affinity CCK2R” value (CCK2R) was 5.9.
In the case of `C[C@@H](O)[C@H](NC(=O)[C@@H]1CSSC[C@H](NC(=O)[C@@H](Cc2ccccc2)NC(=O)COCCOCCNC(=O)[C@H](CCCCNC(=O)[C@H](CCC(=O)O)NC(=O)c2cccc(NC(=O)N[C@@H]3CN(C4CCCCC4)c4ccccc4N(CC(=O)C(C)(C)C)C3=O)c2)NC(=O)CN2CCN(CC(=O)O)CCN(CC(=O)O)CCN(CC(=O)O)CC2)C(=O)N[C@@H](Cc2ccc(O)cc2)C(=O)N[C@H](Cc2c[nH]c3ccccc23)C(=O)N[C@@H](CCCCN)C(=O)N[C@@H]([C@@H](C)O)C(=O)N1)C(N)=O` [Compound I-3, DOTA-K(-E-Z360)-OEG-f[CYwKTC]T-NH2], the tissue to tissue ratio at 24 h (in vivo; T/K Tumor/Kidney ratio) is reported as 0.8, the tissue to tissue ratio at 24 h (in vivo; T/L Tumor/Liver ratio) is reported as 12 and the tissue to tissue ratio at 24 h (in vivo; T/P Tumor/Pancreas ratio) is reported as 13. It also gave a tissue to tissue ratio at 24 h (in vivo; T/Sp Tumor/Spleen ratio) of 45, a tissue to tissue ratio at 24 h (in vivo; T/St Tumor/Stomach ratio) of 4.2 and a tissue uptake at 24 h (in vivo; uptake Kidney) of 16.5 %ID/g. The tissue uptake at 24 h (in vivo; uptake Liver) was 1.16 %ID/g, the tissue uptake at 24 h (in vivo; uptake Pancreas) was 1.05 %ID/g and the tissue uptake at 24 h (in vivo; uptake Spleen) was 0.3 %ID/g. The tissue uptake at 24 h (in vivo; uptake Stomach) was 3.24 %ID/g, the tissue uptake at 24 h (in vivo; uptake Tumor) was 13.6 %ID/g and the “Relative Binding Affinity SSTR2” value (SSTR2; based on mean IC50, C-1 = 1.00) was 0.50. The “Relative Binding Affinity CCK2R” value (CCK2R; based on mean IC50, C-2 = 1.00) was 5.3.
With `C[C@@H](O)[C@H](NC(=O)[C@@H]1CSSC[C@H](NC(=O)[C@@H](Cc2ccccc2)NC(=O)[C@H](CCCCNC(=O)COCCOCCNC(=O)COCCOCCNC(=O)c2cccc(NC(=O)N[C@@H]3CN(C4CCCCC4)c4ccccc4N(CC(=O)C(C)(C)C)C3=O)c2)NC(=O)CN2CCN(CC(=O)O)CCN(CC(=O)O)CCN(CC(=O)O)CC2)C(=O)N[C@@H](Cc2ccc(O)cc2)C(=O)N[C@H](Cc2c[nH]c3ccccc23)C(=O)N[C@@H](CCCCN)C(=O)N[C@@H]([C@@H](C)O)C(=O)N1)C(=O)O` [Compound I-42, DOTA-K(-OEG-OEG-Z360)-f]CYwKTC]T-OH] the tissue to tissue ratio at 24 h (in vivo; T/K Tumor/Kidney ratio) was 1.1, the tissue to tissue ratio at 24 h (in vivo; T/L Tumor/Liver ratio) was 3.3 and the tissue to tissue ratio at 24 h (in vivo; T/P Tumor/Pancreas ratio) was 12. For the same compound, the tissue to tissue ratio at 24 h (in vivo; T/Sp Tumor/Spleen ratio) was 62, the tissue to tissue ratio at 24 h (in vivo; T/St Tumor/Stomach ratio) was 8.8 and the tissue uptake at 24 h (in vivo; uptake Kidney) was 17.8 %ID/g. It also gave a tissue uptake at 24 h (in vivo; uptake Liver) of 5.6 %ID/g, a tissue uptake at 24 h (in vivo; uptake Pancreas) of 1.6 %ID/g and a tissue uptake at 24 h (in vivo; uptake Spleen) of 0.3 %ID/g. The tissue uptake at 24 h (in vivo; uptake Stomach) was 2.1 %ID/g, the tissue uptake at 24 h (in vivo; uptake Tumor) was 18.7 %ID/g and the “Relative Binding Affinity SSTR2” value (SSTR2; based on mean IC50, C-1 = 1.00) was 0.54. The “Relative Binding Affinity CCK2R” value (CCK2R; based on mean IC50, C-2 = 1.00) was 115.
`C[C@@H](O)[C@H](NC(=O)[C@@H]1CSSC[C@H](NC(=O)[C@@H](Cc2ccccc2)NC(=O)[C@H](CCCCNC(=O)COCCOCCNC(=O)c2cccc(NC(=O)N[C@@H]3CN(C4CCCCC4)c4ccccc4N(CC(=O)C(C)(C)C)C3=O)c2)NC(=O)CN2CCN(CC(=O)O)CCN(CC(=O)O)CCN(CC(=O)O)CC2)C(=O)N[C@@H](Cc2ccc(O)cc2)C(=O)N[C@H](Cc2c[nH]c3ccccc23)C(=O)N[C@@H](CCCCN)C(=O)N[C@@H]([C@@H](C)O)C(=O)N1)C(=O)O` [Compound I-36, DOTA-K(-OEG-Z360)-f[CYwKTC]T-OH] showed a tissue to tissue ratio at 24 h (in vivo; [1]) of 2.9, a tissue to tissue ratio at 24 h (in vivo; [2]) of 4.3 and a tissue to tissue ratio at 24 h (in vivo; [3]) of 13. It also gave a tissue to tissue ratio at 24 h (in vivo; [4]) of 36, a tissue to tissue ratio at 24 h (in vivo; [5]) of 11 and a tissue uptake at 24 h (in vivo; [6]) of 7.4 %ID/g. The tissue uptake at 24 h (in vivo; [7]) was 5 %ID/g, the tissue uptake at 24 h (in vivo; [8]) was 1.6 %ID/g and the tissue uptake at 24 h (in vivo; [9]) was 0.6 %ID/g. For the same compound, the tissue uptake at 24 h (in vivo; [10]) was 2 %ID/g, the tissue uptake at 24 h (in vivo; [11]) was 21.6 %ID/g and the IC50 (SSTR2) was 1.6 nM. The “Relative Binding Affinity SSTR2” value (SSTR2) was 1.76, the IC50 (CCK2R) was 4.2 nM and the “Relative Binding Affinity CCK2R” value (CCK2R) was 4.0.
